Consider three molecules from PMC12749308 (Nature Communications, 2025).

Where two headings read alike, the source gives them in different places.

Series [1] concerns the molecule itself. Description: cryo-EM structure.
Series [2] concerns the molecule itself. Description: cryo-EM structure. The source holds these as a separate data set.
In series [3] the target is T1, hPLD3 luminal domain H201A/H416A (hPLD3_HA) (Homo sapiens, UniProt Q8IV08 61-490, H201A;H416A).
T1 sequence: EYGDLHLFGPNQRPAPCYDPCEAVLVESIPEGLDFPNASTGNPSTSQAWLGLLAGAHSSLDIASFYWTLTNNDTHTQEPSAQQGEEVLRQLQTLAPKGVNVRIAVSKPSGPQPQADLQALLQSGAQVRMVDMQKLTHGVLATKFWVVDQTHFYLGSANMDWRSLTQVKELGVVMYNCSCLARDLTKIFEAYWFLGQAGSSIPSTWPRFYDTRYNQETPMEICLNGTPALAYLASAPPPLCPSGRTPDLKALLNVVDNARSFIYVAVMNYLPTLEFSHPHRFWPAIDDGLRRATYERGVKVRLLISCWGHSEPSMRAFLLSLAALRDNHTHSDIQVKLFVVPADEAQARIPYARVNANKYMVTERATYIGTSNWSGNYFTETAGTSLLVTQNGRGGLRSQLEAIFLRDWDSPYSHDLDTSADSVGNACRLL
The experiment in a line: EMSA. For orientation: A gel shift assay detects complexes by their altered migration in electrophoresis.

B1: human PLD3 luminal domain, wild type (domain or fragment, UniProt Q8IV08 61-490, looked up)
chain: EYGDLHLFGPNQRPAPCYDPCEAVLVESIPEGLDFPNASTGNPSTSQAWLGLLAGAHSSLDIASFYWTLTNNDTHTQEPSAQQGEEVLRQLQTLAPKGVNVRIAVSKPSGPQPQADLQALLQSGAQVRMVDMQKLTHGVLHTKFWVVDQTHFYLGSANMDWRSLTQVKELGVVMYNCSCLARDLTKIFEAYWFLGQAGSSIPSTWPRFYDTRYNQETPMEICLNGTPALAYLASAPPPLCPSGRTPDLKALLNVVDNARSFIYVAVMNYLPTLEFSHPHRFWPAIDDGLRRATYERGVKVRLLISCWGHSEPSMRAFLLSLAALRDNHTHSDIQVKLFVVPADEAQARIPYARVNHNKYMVTERATYIGTSNWSGNYFTETAGTSLLVTQNGRGGLRSQLEAIFLRDWDSPYSHDLDTSADSVGNACRLL
modifications: four N-linked glycans observed in the cryo-EM structure (all sites except Asn97)
For B1, in the series “cryo-EM structure [1]”, the “stoichiometry N” value was determined as 2.

B2: human PLD4 luminal domain, wild type (domain or fragment, UniProt Q96BZ4 91-506, looked up)
chain: RDSCQLVLVESIPQDLPSAAGSPSAQPLGQAWLQLLDTAQESVHVASYYWSLTGPDIGVNDSSSQLGEALLQKLQQLLGRNISLAVATSSPTLARTSTDLQVLAARGAHVRQVPMGRLTRGVLHSKFWVVDGRHIYMGSANMDWRSLTQVKELGAVIYNCSHLAQDLEKTFQTYWVLGVPKAVLPKTWPQNFSSHFNRFQPFHGLFDGVPTTAYFSASPPALCPQGRTRDLEALLAVMGSAQEFIYASVMEYFPTTRFSHPPRYWPVLDNALRAAAFGKGVRVRLLVGCGLNTDPTMFPYLRSLQALSNPAANVSVDVKVFIVPVGNHSNIPFSRVNHSKFMVTEKAAYIGTSNWSEDYFSSTAGVGLVVTQSPGAQPAGATVQEQLRQLFERDWSSRYAVGLDGQAPGQDCVWQG
modifications: six N-linked glycans observed in the cryo-EM structure
Turning to B2, the “stoichiometry N” value in “cryo-EM structure [2]” was determined as 4. Regarding ACGTTCCTGATGCTAAGTATGCACTTCATCGTCAAGCAATGCTATGCAT (ssDNA) [Substrate-I (49 nt)], the binding result in series [3] was “binds”.

The term stoichiometry N denotes the number of molecules, sites or subunits per partner or assembly.
